Source: the supplement of paper PMC11811203

B1: THAP1; numbered along this chain (parent)
chain: MVQSCSAYGCKNRYDKDKPVSFHKFPLTRPSLCKEWEAAVRRKNFKPTKYSSICSEHFTPDCFKRECNNKLLKENAVPTIFLCTEPHDKKEDLLEPQEQLPPPPLPPPVSQVDAAIGLLMPPLQTPVNLSVFCDHNYTVEDTMHQRKRIHQLEQQVEKLRKKLKTAQQRCRRQERQLEKLKEVVHFQKEKDDVSERGYVILPNDYFEIVEVPA

Variants of: B1
Assay: THAP1 transcriptional activity (GFP+/GFP- enrichment relative to wild-type constructs) (ratio to WT); higher = more THAP1 activity (PSMB5 reporter activation)
Details: with PSMB5 promoter-GFP reporter
Outline: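 Variants were counted by Illumina sequencing of genomic DNA amplicons from BFP+ cells sorted into GFP-bright and GFP-dim bins five days after lentiviral transduction, in duplicate at MOI ~0.3. The library changed each of residues 2–213 of human THAP1 to all 20 amino acids and was introduced into THAP1-knockout HEK-293T cells with mClover3 knocked in at endogenous PSMB5. Activity equals the replicate-mean bright/dim read fold change over the mean of wild-type synonymous constructs.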

THAP1 transcriptional activity of substitutions, site by site:
D192: W 1.13, Q 1.23, S 0.615, N 0.81, R 0.932, V 1.22, E 0.835, G 1.19, T 1.12, C 0.816, L 1.22, H 0.799, F 0.716, M 1.27, I 0.817
K190: I 1.48, P 0.901, F 0.86, V 1.21, M 0.557, R 0.923, H 0.708, G 0.878, C 1.06, W 0.724, L 0.835, Y 0.762, E 0.903, T 1.35, S 0.846, Q 0.807, D 0.645
V184: P 0.617, Q 1.09, W 0.59, C 0.742, M 1.22, F 0.913, N 1.19, A 1.55, Y 0.826, K 0.901, G 1.29, H 0.994, L 0.923, T 1.1, D 1.11, E 0.657
E195: G 1.07, K 1.37, N 0.808, P 0.704, L 0.714, M 0.781, D 1.15, Y 0.588, W 0.467, T 0.674, A 0.865, R 1.03, H 0.381, S 1.16, V 1.02, F 0.67, I 0.587, C 0.903
R196: V 1.54, E 1.34, S 1.36, W 0.521, A 0.861, N 0.869, T 1.47, H 1.21, Y 1.11, Q 1.73, M 0.811, K 0.966, D 0.823
N203: A 1.28, C 0.834
K188: E 0.506, G 1.05, V 0.826, R 1.34, N 1.03, L 0.724, P 0.419, A 1.14, Y 0.683, H 0.646, Q 0.954, I 0.858, M 0.605, S 0.937, C 0.792
D191: S 1.21, H 0.987, K 1.22, Y 0.661, P 1.02, W 1.06, F 0.695, E 1.36, I 0.874, C 0.786, R 1.31, G 1.05, M 1.04, L 1.26, T 1.12, A 1.23
P202: L 0.884, Y 1.04, M 1.1, W 0.577, K 0.636, I 0.585, D 0.802, T 0.839, F 0.497, C 0.722, G 0.98, S 0.869, Q 0.911, A 1.15, R 0.824, N 0.854, E 1.05, H 1.12
V183: T 1.02, F 0.721, M 0.882, E 0.876, P 0.678, N 1.17, D 0.954, A 1.11, S 1.48, Y 0.941, L 0.753, Q 1.52, W 0.798, R 0.844, C 1.04, H 0.519, G 0.742
Y198: C 0.806, W 0.672, G 0.536, T 1.13, D 0.763, N 1.66, I 1.25, L 1.02, E 1.15, F 0.947, P 0.891, Q 1.51, V 1.01, M 1.02, K 0.631, R 0.78
H185: W 0.528, T 1.07, M 0.723, P 0.76, A 1.58, C 0.951, R 1.31, V 0.579, S 1.02, L 0.359, I 0.617, F 0.469, Y 0.905, N 1.01, G 0.927, K 1.87
E182: I 0.428, V 0.698, F 0.467, Y 0.58, R 1.04, C 0.657, T 0.811, K 1.56, S 0.933, D 1.34, G 0.726, H 0.73, P 0.778, W 0.66
V199: E 0.701, G 0.935, T 0.697, N 0.42, R 0.478, C 0.947, K 0.555, A 0.703, M 0.728, H 0.609, W 0.95, Q 0.623, L 0.908, Y 0.918
I200: A 0.558, D 0.703, M 0.751, C 0.615, E 0.762, Q 1.09, V 1.05, K 0.283, R 0.412, H 0.546, F 0.819, T 0.694, W 0.555, Y 0.548, P 0.688, L 1.27
F186: D 1.4, C 2.01, K 1.59, Y 1.36, V 1.11, A 1.67, T 1.21, G 1.63, R 1.31, S 1.93, M 1.32, W 1.1, L 1.31, E 1.64, I 1.08, Q 2.25, P 1.48, H 1.25
S194: P 1.22, G 1.35, H 1.2, M 0.847, A 0.876, E 1.11, Q 1.42, C 0.978, T 0.865, W 1.09, V 1.06, L 0.808, R 0.998
Q187: D 0.783, P 0.385, E 0.824, C 0.911, A 1.21, Y 0.809, R 1.03, K 0.719, F 0.78, G 0.874, H 0.853, S 1.45, N 0.727, I 0.687, W 0.568, V 0.652, T 0.99, L 0.681
G197: D 0.656, W 1.8, A 1.19, M 1.03, E 1, P 0.913, K 1.33, N 1.56, H 1.76, Q 1.29, T 1.41, I 1.03, V 1.8, R 0.711
L201: H 0.804, C 1.03, Q 0.653, Y 0.773, M 0.715, D 0.836, A 0.829, S 0.906, P 0.855, W 0.749, I 0.905, G 0.813, N 0.624, F 0.809, T 0.898, R 0.9, E 0.953, V 0.62, K 0.887
V193: F 1.06, C 1.04, Y 0.789, N 1.24, I 0.883, L 1.21, E 0.835, G 1.08, M 0.559, K 0.694, T 1.25, A 0.82, D 0.999, H 0.804
E189: W 1.16, L 1.33, S 1.03, K 1.1, Q 1.11, P 0.761, D 1.2, R 0.881, H 0.949, F 0.853, M 1.09, A 1.22, N 0.878, T 1.08, V 0.53
